Values quoted from earlier work as cited in publication PMC4059402 (Chembiochem : a European journal of chemical biology, 2014).

Conditions: with laurate

B1: wild-type CYP102A1: long-chain fatty acid monoxygenase CYP102A1 (P450BM3) from B. megaterium (protein, UniProt P14779 1-1049, looked up)
Bifunctional cytochrome …: MTIKEMPQPKTFGELKNLPLLNTDKPVQALMKIADELGEIFKFEAPGRVTRYLSSQRLIKEACDESRFDKNLSQALKFVRDFAGDGLFTSWTHEKNWKKAHNILLPSFSQQAMKGYHAMMVDIAVQLVQKWERLNADEHIEVPEDMTRLTLDTIGLCGFNYRFNSFYRDQPHPFITSMVRALDEAMNKLQRANPDDPAYDENKRQFQEDIKVMNDLVDKIIADRKASGEQSDDLLTHMLNGKDPETGEPLDDENIRYQIITFLIAGHETTSGLLSFALYFLVKNPHVLQKAAEEAARVLVDPVPSYKQVKQLKYVGMVLNEALRLWPTAPAFSLYAKEDTVLGGEYPLEKGDELMVLIPQLHRDKTIWGDDVEEFRPERFENPSAIPQHAFKPFGNGQRACIGQQFALHEATLVLGMMLKHFDFEDHTNYELDIKETLTLKPEGFVVKAKSKKIPLGGIPSPSTEQSAKKVRKKAENAHNTPLLVLYGSNMGTAEGTARDLADIAMSKGFAPQVATLDSHAGNLPREGAVLIVTASYNGHPPDNAKQFVDWLDQASADEVKGVRYSVFGCGDKNWATTYQKVPAFIDETLAAKGAENIADRGEADASDDFEGTYEEWREHMWSDVAAYFNLDIENSEDNKSTLSLQFVDSAADMPLAKMHGAFSTNVVASKELQQPGSARSTRHLEIELPKEASYQEGDHLGVIPRNYEGIVNRVTARFGLDASQQIRLEAEEEKLAHLPLAKTVSVEELLQYVELQDPVTRTQLRAMAAKTVCPPHKVELEALLEKQAYKEQVLAKRLTMLELLEKYPACEMKFSEFIALLPSIRPRYYSISSSPRVDEKQASITVSVVSGEAWSGYGEYKGIASNYLAELQEGDTITCFISTPQSEFTLPKDPETPLIMVGPGTGVAPFRGFVQARKQLKEQGQSLGEAHLYFGCRSPHEDYLYQEELENAQSEGIITLHTAFSRMPNQPKTYVQHVMEQDGKKLIELLDQGAHFYICGDGSQMAPAVEATLMKSYADVHQVSEADARLWLQQLEEKGRYAKDVWAG
In the case of B1, the catalytic rate is listed as 1,680 min^−1.
